B1: Sso7d construct 4.1A03 (EGFR, Purif. No. 2) (designed binder)
chain: ATVKFTYQGEEKQVDISKIKIVDRYGQYIHFRYDEGGGANGWGWVSEKDAPKELLQMLEKQ
notes: Purified from E. coli on anti-APP columns; It is NGS hit no; 3, at 2.18%; also called Hit NO; not shown: APP tag of the vector
B2: Sso7d construct 4.1A02 (EGFR, Purif. No. 1) (designed binder)
chain: ATVKFTYQGEEKQVDISKIKIVDRYGQWIHFNYDEGGGAYGWGWVSEKDAPKELLQMLEKQ
notes: Purified from E. coli BL21(DE3) on anti-APP columns; It was found 1x on the plate and was not in the NGS Top30
B3: Sso7d construct 4.1H02 (EGFR, Purif. No. 4) (designed binder)
chain: ATVKFTYQGEEKQVDISKIKIVDRYGQWIHFRYDEGGGADGWGWVSEKDAPKELLQMLEKQ
notes: Purified from E. coli on anti-APP columns; not shown: APP tag of the vector
B4: Sso7d construct 4.2B11 (EGFR, Purif. No. 6) (designed binder)
chain: ATVKFTYQGEEKQVDISKIKIVDRYGQNIHFNYDEGGGAWGWGWVSEKDAPKELLQMLEKQ
notes: Purified from E. coli on anti-APP columns; It is NGS hit no; 24, at 0.89%; also called Hit No. 24; not shown: APP tag of the vector
B5: Sso7d construct 4.2A08 (EGFR, Purif. No. 5) (designed binder)
chain: ATVKFTYQGEEKQVDISKIKIVDRYGQNIHFYYDEGGGANGWGWVSEKDAPKELLQMLEKQ
notes: Purified from E. coli on anti-APP columns; It is NGS hit 1, at 4.56%; also called Hit 1 NGS; not shown: APP tag of the vector
B6: Sso7d construct 4.4E10 (EGFR, Purif. No. 7) (designed binder)
chain: ATVKFTYQGEEKQVDISKIKIVDRYGQYIHFYYDEGGGADGWGWVSEKDAPKELLQMLEKQ
notes: as for B3

Target: T1, human EGFR on HKB11 cells stably over-expressing hEGFR (human, UniProt P00533 25-1210)
T1 construct: whole, on cells; The control lines were HKB11 w.t. cells, which express EGFR endogenously, and HKB11 EGFR knockout cells; also called HKB11_EGFR; HKB11-EGFR transfected
Experiment: FACS of purified APP-tagged Sso7d on EGFR-overexpressing HKB11 cells versus EGFR knock out cells

Binder | binding result
B1 | binds
B2 | binds
B3 | binds
B4 | binds
B5 | binds
B6 | binds

From US20250353883A1 (Novartis, published 2025)
